Measurements as given in paper PMC7954794 (2021).

B1: S. cerevisiae Abp1 (full length; SH3 domain 535-592 mutated) / Hua2 (parent complex)
chain 1: MALEPIDYTTHSREIDAEYLKIVRGSDPDTTWLIISPNAKKEYEPESTGSSFHDFLQLFDETKVQYGLARVSPPGSDVEKIIIIGWCPDSAPLKTRASFAANFAAVANNLFKGYHVQVTARDEDDLDENELLMKISNAAGARYSIQTSSKQQGKASTPPVKKSFTPSKSPAPVSKKEPVKTPSPAPAAKISSRVNDNNDDDDWNEPELKERDFDQAPLKPNQSSYKPIGKIDLQKVIAEEKAKEDPRLVQKPTAAGSKIDPSSDIANLKNESKLKRDSEFNSFLGTTKPPSMTESSLKNDDDKVIKGFRNEKSPAQLWAERKAKQNSGNAETKAEAPKPEVPEDEPEGEPDVKDLKSKFEGLAASEKEEEEMENKFAPPPKKSEPTIISPKPFSKPQEPVKAEEAEQPKTDYKKIGNPLPGMHIEADNEEEPEENDDDWDDDEDEAAQPPLPSRNVASGAPVQKEEPEQEEIAPSLPSRNSIPAPKQEEAPEQAPEEEIEEEAEEAAPQLPSRSSAAPPPPPRRATPEKKPKENPWATAEYDYDAAEDNELTFVENDKIINIEFVDDDWWLGELEKDGSKGLFPSNYVSLGN
chain 2: MQQTKFGKMYLDHDSVVEYSEDEIVEADRITLGYKKRLSMIENQMRHLLEDFSLDVQQIEPILADLQKYYDAFLQLLQKRNKSLQCKRSTHQPVPSPMNSQTSTNAKVNLSGKLMKFQLNSVQKFDEENILRILQNKIEFEHYFQIDKGKKQKVLLLAVYQCLNGPTRLHKVLNIEGIIHNNSIRTILGKQVSSSKWTVFLYDVKLVLLAHRQDVPNLETSKMIVRYGDLFPCALYFKDHTAY

Variants of: B1
Experiment: DHFR protein-fragment complementation in yeast (Abp1-DHFR F[1,2] x partner-DHFR F[3]), deep mutational scanning, second methotrexate selection vs reference; S. cerevisiae, DHFR-PCA selection in liquid with methotrexate at 30 C, two 72 h selections (the score uses the second); reference = the pre-selection culture
For chain 1 MALEPIDYTTHSREIDAEYLKIVRGSDPDTTWLIISPNAKKEYEPESTGSSFHDFLQLFDETKVQYGLARVSPPGSDVEKIIIIGWCPDSAPLKTRASFAANFAAVANNLFKGYHVQVTARDEDDLDENELLMKISNAAGARYSIQTSSKQQGKASTPPVKKSFTPSKSPAPVSKKEPVKTPSPAPAAKISSRVNDNNDDDDWNEPELKERDFDQAPLKPNQSSYKPIGKIDLQKVIAEEKAKEDPRLVQKPTAAGSKIDPSSDIANLKNESKLKRDSEFNSFLGTTKPPSMTESSLKNDDDKVIKGFRNEKSPAQLWAERKAKQNSGNAETKAEAPKPEVPEDEPEGEPDVKDLKSKFEGLAASEKEEEEMENKFAPPPKKSEPTIISPKPFSKPQEPVKAEEAEQPKTDYKKIGNPLPGMHIEADNEEEPEENDDDWDDDEDEAAQPPLPSRNVASGAPVQKEEPEQEEIAPSLPSRNSIPAPKQEEAPEQAPEEEIEEEAEEAAPQLPSRSSAAPPPPPRRATPEKKPKENPWATAEYDYDAAEDNELTFVELDKIINIEFVDDDWWLGELEKDGSKGLFPSNYVSLGN [chain 1 N556L], the screen value was -0.482 DMS score: mean over two replicates of log2(f_test/f_ref + 0.5)/ln 2, minus the synonymous-codon median (not a log2 …. In the case of chain 1 MALEPIDYTTHSREIDAEYLKIVRGSDPDTTWLIISPNAKKEYEPESTGSSFHDFLQLFDETKVQYGLARVSPPGSDVEKIIIIGWCPDSAPLKTRASFAANFAAVANNLFKGYHVQVTARDEDDLDENELLMKISNAAGARYSIQTSSKQQGKASTPPVKKSFTPSKSPAPVSKKEPVKTPSPAPAAKISSRVNDNNDDDDWNEPELKERDFDQAPLKPNQSSYKPIGKIDLQKVIAEEKAKEDPRLVQKPTAAGSKIDPSSDIANLKNESKLKRDSEFNSFLGTTKPPSMTESSLKNDDDKVIKGFRNEKSPAQLWAERKAKQNSGNAETKAEAPKPEVPEDEPEGEPDVKDLKSKFEGLAASEKEEEEMENKFAPPPKKSEPTIISPKPFSKPQEPVKAEEAEQPKTDYKKIGNPLPGMHIEADNEEEPEENDDDWDDDEDEAAQPPLPSRNVASGAPVQKEEPEQEEIAPSLPSRNSIPAPKQEEAPEQAPEEEIEEEAEEAAPQLPSRSSAAPPPPPRRATPEKKPKENPWATAEYDYDAAEDNELTFVENDKIINIEFRDDDWWLGELEKDGSKGLFPSNYVSLGN [chain 1 V565R], the screen value is reported as -2.71 DMS score: mean over two replicates of log2(f_test/f_ref + 0.5)/ln 2, minus the synonymous-codon median (not a log2 …. With chain 1 MALEPIDYTTHSREIDAEYLKIVRGSDPDTTWLIISPNAKKEYEPESTGSSFHDFLQLFDETKVQYGLARVSPPGSDVEKIIIIGWCPDSAPLKTRASFAANFAAVANNLFKGYHVQVTARDEDDLDENELLMKISNAAGARYSIQTSSKQQGKASTPPVKKSFTPSKSPAPVSKKEPVKTPSPAPAAKISSRVNDNNDDDDWNEPELKERDFDQAPLKPNQSSYKPIGKIDLQKVIAEEKAKEDPRLVQKPTAAGSKIDPSSDIANLKNESKLKRDSEFNSFLGTTKPPSMTESSLKNDDDKVIKGFRNEKSPAQLWAERKAKQNSGNAETKAEAPKPEVPEDEPEGEPDVKDLKSKFEGLAASEKEEEEMENKFAPPPKKSEPTIISPKPFSKPQEPVKAEEAEQPKTDYKKIGNPLPGMHIEADNEEEPEENDDDWDDDEDEAAQPPLPSRNVASGAPVQKEEPEQEEIAPSLPSRNSIPAPKQEEAPEQAPEEEIEEEAEEAAPQLPSRSSAAPPPPPRRATPEKKPKENPWATAEYDYDAAEDNELTFVENDKIINIEFVDDDWWLGELEGDGSKGLFPSNYVSLGN [chain 1 K576G] the screen value was -0.96 DMS score: mean over two replicates of log2(f_test/f_ref + 0.5)/ln 2, minus the synonymous-codon median (not a log2 …. With chain 1 MALEPIDYTTHSREIDAEYLKIVRGSDPDTTWLIISPNAKKEYEPESTGSSFHDFLQLFDETKVQYGLARVSPPGSDVEKIIIIGWCPDSAPLKTRASFAANFAAVANNLFKGYHVQVTARDEDDLDENELLMKISNAAGARYSIQTSSKQQGKASTPPVKKSFTPSKSPAPVSKKEPVKTPSPAPAAKISSRVNDNNDDDDWNEPELKERDFDQAPLKPNQSSYKPIGKIDLQKVIAEEKAKEDPRLVQKPTAAGSKIDPSSDIANLKNESKLKRDSEFNSFLGTTKPPSMTESSLKNDDDKVIKGFRNEKSPAQLWAERKAKQNSGNAETKAEAPKPEVPEDEPEGEPDVKDLKSKFEGLAASEKEEEEMENKFAPPPKKSEPTIISPKPFSKPQEPVKAEEAEQPKTDYKKIGNPLPGMHIEADNEEEPEENDDDWDDDEDEAAQPPLPSRNVASGAPVQKEEPEQEEIAPSLPSRNSIPAPKQEEAPEQAPEEEIEEEAEEAAPQLPSRSSAAPPPPPRRATPEKKPKENPWATAEYQYDAAEDNELTFVENDKIINIEFVDDDWWLGELEKDGSKGLFPSNYVSLGN [chain 1 D542Q] the screen value was 0.542 DMS score: mean over two replicates of log2(f_test/f_ref + 0.5)/ln 2, minus the synonymous-codon median (not a log2 …. With chain 1 MALEPIDYTTHSREIDAEYLKIVRGSDPDTTWLIISPNAKKEYEPESTGSSFHDFLQLFDETKVQYGLARVSPPGSDVEKIIIIGWCPDSAPLKTRASFAANFAAVANNLFKGYHVQVTARDEDDLDENELLMKISNAAGARYSIQTSSKQQGKASTPPVKKSFTPSKSPAPVSKKEPVKTPSPAPAAKISSRVNDNNDDDDWNEPELKERDFDQAPLKPNQSSYKPIGKIDLQKVIAEEKAKEDPRLVQKPTAAGSKIDPSSDIANLKNESKLKRDSEFNSFLGTTKPPSMTESSLKNDDDKVIKGFRNEKSPAQLWAERKAKQNSGNAETKAEAPKPEVPEDEPEGEPDVKDLKSKFEGLAASEKEEEEMENKFAPPPKKSEPTIISPKPFSKPQEPVKAEEAEQPKTDYKKIGNPLPGMHIEADNEEEPEENDDDWDDDEDEAAQPPLPSRNVASGAPVQKEEPEQEEIAPSLPSRNSIPAPKQEEAPEQAPEEEIEEEAEEAAPQLPSRSSAAPPPPPRRATPEKKPKENPWATAEYDYDAAEDNELTFVENDKIINIEFVTDDWWLGELEKDGSKGLFPSNYVSLGN [chain 1 D566T] the screen value was -2.82 DMS score: mean over two replicates of log2(f_test/f_ref + 0.5)/ln 2, minus the synonymous-codon median (not a log2 ….
